The text below walks through data of PMC8486240.

Series [1] addresses T1, PpbHLH1 (Prunus persica, UniProt M5W438 1-344). The series can be described thus: EMSA. (In general: In EMSA bound probe runs differently from free probe, usually more slowly.)
For series [2], the target named is T1, PpbHLH1. The series can be described thus: competition.

B1: Mutant-Probe1 (dsDNA)
DNA 1: TGAAATGATGATAAGAGTGGAGATATATGGCCTGGAAAAC
DNA 2: GTTTTCCAGGCCATATATCTCCACTCTTATCATCATTTCA
As for B1, in the series with PpbHLH1 [1], the binding result was “no binding”.

B2: Probe1 unlabelled (cold competitor) (dsDNA)
DNA 1: TGAAATGATGATAAGCACATGGATATATGGCCTGGAAAAC
DNA 2: GTTTTCCAGGCCATATATCCATGTGCTTATCATCATTTCA
For B2, the binding result with PpbHLH1 [2] was “binds”.
